Results published in publication PMC10188570, “Pathway and mechanism of tubulin folding mediated by TRiC/CCT along its ATPase cycle revealed using cryo-EM” (Communications Biology, 2023).

Key:
Test in all cases: cross-linking; XL-MS, 2 mM BS3 on ice 2 h, purified TRiC with associated tubulin after 1 mM ATP, 5 mM MgCl2, 5 mM Al(NO3)3, 30 mM NaF (ATP-AlFx) 1 h 37 °C
Settings in all cases: both partners purified
CCT8 = target: T1, CCT8 (human, UniProt P50990 1-548)
T1 construct: CCT8 subunit of human TRiC/CCT, endogenous; stood in the assays as a subunit of the whole TRiC complex; also called TRiC subunit CCT8; CCT8’ (copy in the trans ring); source: endogenous, HEK293F cells, purified as a subunit of TRiC
T1 sequence (looked up): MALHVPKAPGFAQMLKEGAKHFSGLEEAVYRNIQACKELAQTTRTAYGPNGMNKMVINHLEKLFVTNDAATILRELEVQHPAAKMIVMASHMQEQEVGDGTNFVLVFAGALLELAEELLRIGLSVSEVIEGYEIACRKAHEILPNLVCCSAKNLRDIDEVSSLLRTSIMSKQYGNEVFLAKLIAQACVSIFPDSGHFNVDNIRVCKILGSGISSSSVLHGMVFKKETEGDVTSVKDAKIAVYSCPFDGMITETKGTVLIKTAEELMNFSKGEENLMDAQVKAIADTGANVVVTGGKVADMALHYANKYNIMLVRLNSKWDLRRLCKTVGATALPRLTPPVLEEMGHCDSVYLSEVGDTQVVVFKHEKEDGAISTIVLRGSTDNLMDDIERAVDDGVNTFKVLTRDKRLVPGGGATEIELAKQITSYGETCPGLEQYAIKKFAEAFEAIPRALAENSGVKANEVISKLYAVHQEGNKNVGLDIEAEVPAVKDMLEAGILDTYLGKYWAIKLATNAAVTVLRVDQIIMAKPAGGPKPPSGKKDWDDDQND

CCT3 = target: T2, CCT3 (human, UniProt P49368 1-545)
T2 construct: CCT3 subunit of human TRiC/CCT, endogenous; stood in the assays as a subunit of the whole TRiC complex; also called TRiC subunit CCT3; source: endogenous, HEK293F cells, purified as a subunit of TRiC
T2 sequence (looked up): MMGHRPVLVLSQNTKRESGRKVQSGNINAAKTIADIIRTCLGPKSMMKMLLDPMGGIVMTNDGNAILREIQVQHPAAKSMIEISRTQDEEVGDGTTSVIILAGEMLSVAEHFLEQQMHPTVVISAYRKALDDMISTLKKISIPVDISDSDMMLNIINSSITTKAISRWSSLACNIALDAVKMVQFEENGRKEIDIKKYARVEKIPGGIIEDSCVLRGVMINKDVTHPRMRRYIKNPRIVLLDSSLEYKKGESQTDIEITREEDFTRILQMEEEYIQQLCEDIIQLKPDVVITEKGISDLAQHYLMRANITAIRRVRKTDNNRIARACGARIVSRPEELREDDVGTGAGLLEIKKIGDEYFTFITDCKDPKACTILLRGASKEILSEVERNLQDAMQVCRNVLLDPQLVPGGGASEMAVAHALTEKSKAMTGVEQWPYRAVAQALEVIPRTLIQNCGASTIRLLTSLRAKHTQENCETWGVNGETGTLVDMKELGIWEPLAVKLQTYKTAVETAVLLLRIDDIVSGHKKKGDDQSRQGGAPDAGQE

CCT4 = target: T3, CCT4 (human, UniProt P50991 1-539)
T3 construct: CCT4 subunit of human TRiC/CCT, endogenous; stood in the assays as a subunit of the whole TRiC complex; also called TRiC subunit CCT4; source: endogenous, HEK293F cells, purified as a subunit of TRiC
T3 sequence (looked up): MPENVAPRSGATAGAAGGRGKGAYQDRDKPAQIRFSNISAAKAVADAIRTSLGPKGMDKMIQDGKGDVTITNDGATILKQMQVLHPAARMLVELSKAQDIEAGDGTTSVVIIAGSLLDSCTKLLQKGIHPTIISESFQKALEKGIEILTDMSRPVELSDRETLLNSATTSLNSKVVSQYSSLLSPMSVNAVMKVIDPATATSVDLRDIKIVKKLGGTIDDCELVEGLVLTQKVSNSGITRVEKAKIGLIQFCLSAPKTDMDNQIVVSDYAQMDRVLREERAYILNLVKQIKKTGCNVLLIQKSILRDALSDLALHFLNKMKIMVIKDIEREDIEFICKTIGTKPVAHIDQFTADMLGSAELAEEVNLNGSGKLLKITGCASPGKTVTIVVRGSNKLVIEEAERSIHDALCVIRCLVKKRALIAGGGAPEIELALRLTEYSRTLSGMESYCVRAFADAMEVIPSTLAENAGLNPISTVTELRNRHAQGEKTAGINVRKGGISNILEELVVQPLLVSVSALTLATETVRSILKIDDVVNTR

CCT5 = target: T4, CCT5 (human, UniProt P48643 1-541)
T4 construct: CCT5 subunit of human TRiC/CCT, endogenous; stood in the assays as a subunit of the whole TRiC complex; also called TRiC subunit CCT5; source: endogenous, HEK293F cells, purified as a subunit of TRiC

CCT7 = target: T5, CCT7 (human, UniProt Q99832 1-543)
T5 construct: CCT7 subunit of human TRiC/CCT, endogenous; stood in the assays as a subunit of the whole TRiC complex; also called TRiC subunit CCT7; source: endogenous, HEK293F cells, purified as a subunit of TRiC
T5 sequence (looked up): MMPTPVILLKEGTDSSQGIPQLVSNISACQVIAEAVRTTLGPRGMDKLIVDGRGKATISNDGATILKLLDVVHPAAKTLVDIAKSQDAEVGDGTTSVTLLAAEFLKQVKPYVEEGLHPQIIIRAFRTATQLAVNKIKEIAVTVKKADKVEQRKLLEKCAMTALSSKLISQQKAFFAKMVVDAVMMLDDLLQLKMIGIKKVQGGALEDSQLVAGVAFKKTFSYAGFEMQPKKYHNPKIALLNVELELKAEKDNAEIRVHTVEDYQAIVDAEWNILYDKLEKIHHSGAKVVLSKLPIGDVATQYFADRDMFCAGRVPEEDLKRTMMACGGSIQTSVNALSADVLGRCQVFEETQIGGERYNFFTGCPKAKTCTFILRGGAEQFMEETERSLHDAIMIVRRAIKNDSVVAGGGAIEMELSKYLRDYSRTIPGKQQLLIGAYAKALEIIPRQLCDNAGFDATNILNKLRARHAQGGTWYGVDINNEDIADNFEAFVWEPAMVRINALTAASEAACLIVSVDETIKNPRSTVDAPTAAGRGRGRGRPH

T4 sequence (P48643 whole entry): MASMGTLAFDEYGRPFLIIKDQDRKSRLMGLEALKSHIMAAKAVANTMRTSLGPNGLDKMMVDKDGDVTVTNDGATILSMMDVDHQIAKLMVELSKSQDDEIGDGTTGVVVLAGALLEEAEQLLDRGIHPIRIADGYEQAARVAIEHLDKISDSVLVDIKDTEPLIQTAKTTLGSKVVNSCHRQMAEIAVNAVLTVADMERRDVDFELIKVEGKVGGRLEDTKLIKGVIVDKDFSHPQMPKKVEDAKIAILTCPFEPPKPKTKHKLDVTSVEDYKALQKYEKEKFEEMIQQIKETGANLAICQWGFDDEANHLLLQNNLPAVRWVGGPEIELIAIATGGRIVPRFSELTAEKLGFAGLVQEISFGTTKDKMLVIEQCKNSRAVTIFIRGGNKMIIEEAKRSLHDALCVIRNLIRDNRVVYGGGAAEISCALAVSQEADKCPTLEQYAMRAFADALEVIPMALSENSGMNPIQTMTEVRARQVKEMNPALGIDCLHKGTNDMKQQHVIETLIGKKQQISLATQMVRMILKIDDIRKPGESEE

binding result (CCT8): binds | binding result (CCT3): binds | binding result (CCT4): binds | binding result (CCT5): binds | binding result (CCT7): binds
B1: β-tubulin (TUBB5) (natural protein, human (endogenous in HEK293F), UniProt P07437 1-444, looked up)
chain: MREIVHIQAGQCGNQIGAKFWEVISDEHGIDPTGTYHGDSDLQLDRISVYYNEATGGKYVPRAILVDLEPGTMDSVRSGPFGQIFRPDNFVFGQSGAGNNWAKGHYTEGAELVDSVLDVVRKEAESCDCLQGFQLTHSLGGGTGSGMGTLLISKIREEYPDRIMNTFSVVPSPKVSDTVVEPYNATLSVHQLVENTDETYCIDNEALYDICFRTLKLTTPTYGDLNHLVSATMSGVTTCLRFPGQLNADLRKLAVNMVPFPRLHFFMPGFAPLTSRGSQQYRALTVPELTQQVFDAKNMMAACDPRHGRYLTVAAVFRGRMSMKEVDEQMLNVQNKNSSYFVEWIPNNVKTAVCDIPPRGLKMAVTFIGNSTAIQELFKRISEQFTAMFRRKAFLHWYTGEGMDEMEFTEAESNMNDLVSEYQQYQDATAEEEEDFGEEAEEEA
notes: β-tubulin (TUBB5), human, endogenous; identified by MS and western blot; folding intermediate to near-natively folded, depending on the state of TRiC; also called substrate; source: endogenous, HEK293F cells, co-purified with TRiC
